Target: FMDV C/PHI/3/1994 virus (Foot-and-mouth disease virus C/PHI/3/1994)

B1: Ab17 (antibody, V domains shown)
VH: QVQLRESGPSSLKPSQTLSLTCAVSGFSLSTYAVGWVRQAPGKALEWVGDITSSGDTFYNPALKSRFSITKDNSKNQVSLSVGSVTPEDTATFYCTRLTCGDDCSTAWHNFDAWGQGLLVTVSS
VL: SYELTQPTSVSVALGQTAKITCSGDLLDVQYTQWYQQKPGQGPVRVIYKDSERPSGISDRFSGSSSGKTATLIISGAQTEDEADYYCQSTDSSQYGIFGRGTTLTVL
Binder B1 has a VNT: minimum antibody concentration that neutralises C/PHI/3/1994 virus of 213 nM.

B2: Ab49 (antibody, V domains shown)
VH: QVQLRESGPSLVKPSQTLSLTCTVSGFSLTNYAVGWVRQAPGKAIQSLSIISTTGDTYYNPALKSRLSITKDNSKSQVSLSVSSVAPEDTATYYCVKFCGNADSAGHGWGCDYGDNENWGQGLLVTVSS
VL: SYELTQPTSVSVALGQTAKITCSGDLLDEQYTQWYQQKPGQGPVRVIYKDSERPSGISDRFSGSSSGKTATLTISGAQTEDEADYYCQSFYSSTDPVFGSGTTLTVL
Work on B2 yielded a VNT: minimum antibody concentration that neutralises C/PHI/3/1994 virus of 1150 nM.
